Patent US20210292392A1 (TSB THERAPEUTICS BEIJING, published 2021)

molecular target: full length S protein of SARS-CoV-2 (on pseudovirus) (SARS-CoV-2, UniProt P0DTC2 14-1273); test: cell-based or functional assay

| Binder | Pseudovirus IC50 [µg/mL] | Pseudovirus IC80 [µg/mL] |
| --- | --- | --- |
| P5A-1D2 (antibody, human IgG1, lambda, V domains shown) VH: EVQLVESGGGLIQPGGSLRLSCAASGFIVSSNYMSWVRQAPGKGLEWVSIIYSGGSTYYADSVKGRFTISRDNSNNTLYLQMNSLRAEDTAVYYCARALQVGATSDYFDYWGQGTLVTVSS VL: QSVLTQPPSVSGAPGQRVTISCTGSSSNIGAGYDVHWYQQLPGTAPKLLIYGNSNRPSGVPDRFSGSKSGTSASLAITGLQAEDETDYYCQSCDSSLSVVVFGGGTKLTVLG | 0.0186 | 0.102 |
| P5A-2G9 (antibody, human IgG1, lambda, V domains shown) VH: QVQLVESGGGVVQPGRSLRLSCAASGFTFSSYGMHWVRQAPGKGLEWVAVIWYDGSNKYYADSVKGRFTISRDNSKNTLYLQMNSLRAEDTAVYYCARWFHTGGYFDYWGQGTLVTVSS VL: QPVLTQPPSSSASPGESARLTCTLPSDINVSSYNIYWYQQKPGSPPRYLLYYYSDSDKGQGSGVPSRFSGSKDASANTGILLISGLQSEDEADYYCMIWPSNALYVFGTGTKVTVLG [P5A-2G9, listing 1 of 2 here] | 0.0158 | 0.147 |
| P5A-2G7 (antibody, human IgG1, lambda, V domains shown) VH: QVQLQESGPGLVKPSETLSLTCTVSGDSVSSGSYYWSWIRQPPGKGLEWIGYIYYSGSTNYNPSLKSRVTISVDTSKNQFSLKLSSVTAADTAVYYCARERCYYGSGRAPRCVWFDPWGQGTLVTVSS VL: QSALTQPASVSGSPGQSITISCTGTSSDVGGYNYVSWYQQHPGKAPKLMIYDVSNRPSGVSNRFSGSKSGNTASLTISGLQAEDEADYYCSSYTSSSTLVVFGGGTKLTVLG [P5A-2G7, listing 1 of 2 here] | 0.0044 | 0.0287 |

molecular target: T1, full length spike (S) protein of SARS-CoV-2 (SARS-CoV-2, UniProt P0DTC2 14-1273); test: cell-based or functional assay

| Binder | IC50, pseudovirus neutralization [µg/mL] |
| --- | --- |
| P5A-3C8 (antibody, human IgG1, kappa, V domains shown) VH: EVQLVESGGGLIQPGGSLRLSCAASGFTVSSNYMSWVRQAPGKGLEWVSFIYSGGSTYYADSVKGRFTISRDNSKNTLYLQMNSLRAEDTAVYYCARDLQEHGMDVWGQGTTVTVSS VL: DIQLTQSPSSLSASVGDRVTITCRASQGISSYLAWYQQKPGKAPKLLIYAASTLQSGVPSRFSGSGSGTDFTLTISSLQPEDFATYYCQHLNSYPPGYTFGQGTKLEIKR | 0.024 |
| P5A-2G7 (antibody, human IgG1, lambda, V domains shown) VH: QVQLQESGPGLVKPSETLSLTCTVSGDSVSSGSYYWSWIRQPPGKGLEWIGYIYYSGSTNYNPSLKSRVTISVDTSKNQFSLKLSSVTAADTAVYYCARERCYYGSGRAPRCVWFDPWGQGTLVTVSS VL: QSALTQPASVSGSPGQSITISCTGTSSDVGGYNYVSWYQQHPGKAPKLMIYDVSNRPSGVSNRFSGSKSGNTASLTISGLQAEDEADYYCSSYTSSSTLVVFGGGTKLTVLG [P5A-2G7, listing 2 of 2 here] | 0.016 |

molecular target: T1, full length spike (S) protein of …; test: cell-based or functional assay; remark: another data set of the same source

| Binder | IC50, pseudovirus neutralization [µg/mL] | Neutralizing activity (%) Mean at 0.0228624 µg/ml [%] | Neutralizing activity (%) Mean at 0.0685871 µg/ml [%] | Neutralizing activity (%) Mean at 0.2057613 µg/ml [%] | Neutralizing activity (%) Mean at 0.6172839 µg/ml [%] | Neutralizing activity (%) Mean at 1.851852 µg/ml [%] | Neutralizing activity (%) Mean at 5.555555 µg/ml [%] | Neutralizing activity (%) Mean at 16.66667 µg/ml [%] | Neutralizing activity (%) Mean at 50 µg/ml [%] |
| --- | --- | --- | --- | --- | --- | --- | --- | --- | --- |
| P2C-1C10 (antibody, V domains shown) VH: QVQLVQSGAEVKKPGSSVKVSCKASGGTFSSYAIIWVRQAPGQGLEWMGGIIPIFGTANYAQKFQGRVTITADESTSTAYMELSSLRSEDTAVYYCARVVTGYYFDYWGQGTLVTVSS VL: EIVLTQSPATLSLSPGERATLSCRASQSVSSYLAWYQQKPGQAPRLLIYDASNRATGIPARFSGSGSGTDFTLTISSLEPEDFAVYYCQQRSNWPSFGQGTKLEIKR | 2.62 | -2.34 | 7.78 | 13.4 | 5.92 | 38.5 | 88.9 | 99.9 | 100 |
| P2C-1D5 (antibody, V domains shown) VH: not shown VL: SYVLTQPPSVSVAPGKTARITCGGNNIGSKSVHWYQQKPGQAPVLVIYYDSDRPSGIPERFSGSNSGNTATLTISRVEAGDEADYYCQVWDSSSDHHVFGTGTKVTVLG | 10.7 | 4.24 | 5.65 | 8.66 | 12.4 | 16.1 | 33.6 | 64.9 | 90.2 |
| P2C-1C8 (antibody, V domains shown) VH: QVQLVESGGGVVQPGRSLRLSCAASGFTFRSYGMHWVRQAPGKGLEWVAVIWYDGSNKYYADSVKGRFTISRDNSKNTLYLQMNSLRAEDTAVYYCARDIEIVVVNIDYWGQGTLVTVSS VL: not shown |  | -7.15 | 2.8 | 4.92 | 10.1 | 8.39 | 23.3 | 34.7 | 59.2 |

molecular target: T1, full length spike (S) protein of …; test: cell-based or functional assay; remark: another data set of the same source

| Binder | IC80, Pesudovirus neutralization [µg/mL] | IC90, Pesudovirus neutralization [µg/mL] | IC50, Pesudovirus neutralization [µg/mL] |
| --- | --- | --- | --- |
| P5A-1B8 (antibody, human IgG1, kappa, V domains shown) VH: EVQLVESGGGLIQPGGSLRLSCAASGFTVSSNYMSWVRQAPGKGLEWVSVIYPGGSTFYADSVKGRFTISRDNSKNTLYLQMNSLRAEDTAVYYCARETLAFDYWGQGTLVTVSS VL: DIQLTQSPSFLSASVGDRVTITCRASQGISSYLAWYQQKPGKAPKLLIYAASTLQSGVPSRFSGSGSGTEFTLTISSLQPEDFATYYCQQLNSYPPAFGGGTKVEIKR | 0.0509 | 0.137 |  |
| P22A-1D1 (antibody, human IgG1, kappa, V domains shown) VH: EVQLVESGGGLIQPGGSLRLSCAASGFTVSSNYMSWVRQAPGKGLEWVSVIYSGGSTYYADSVKGRFTISRDNSKNTLYLQMNSLRAEDTAVYYCARDRDYYGMDVWGQGTTVTVSS VL: DIQLTQSPSFLSASVGDRVTITCRASQGISSYLAWYQQKPGKAPKLLIYAASTLQSGVPSRFSGSGSGTEFTLTISSLQPEDFATYYCLHLNSYRTFGLGTKVEIKR |  | 0.399 |  |
| P5A-1D1 (antibody, V domains shown) VH: EVQLVESGGGLIQPGGSLRLSCAASGLTVSSNYMSWVRQAPGKGLEWVSVIYSGGSTYYADSVKGRFTISRDNSKNTLYLQMNSLRAEDTAVYYCARDLYYYGMDVWGQGTTVTVST VL: DIQLTQSPSFLSASVGDRVTITCRASQGISSYLAWYQQKPGKAPKLLIYAASTLQSGVPSRFSGSGSGTDFTLTISSLQPEDFATYYCQQLNSYPTFGQGTRLEIKR |  | 0.232 |  |
| P5A-3A1 (antibody, V domains shown) VH: EVQLVESGGGLIQPGGSLRLSCAASGFTVSSNYMSWVRQAPGKGLEWVSVIYSGGSTYYADSVKGRFTISRDNSKNTLYLQMNSLRAEDTAVYYCARDYGDFYFDYWGQGTLVTVSS VL: not shown |  | 7.2 |  |
| P5A-3C12 (antibody, human IgG1, kappa, V domains shown) VH: QITLKESGPTLVKPTQTLTLTCTFSGFSLSTSGVGVGWIRQPPGKALEWLALIYWDDDKRYSPSLKSRLTITKDTSKNQVVLTMTNMDPVDTATYYCAHSLFLTVGYSSSWSPFDYWGQGTLVTVSS VL: not shown |  | 0.955 |  |
| P4A-1H6 (antibody, human IgG1, kappa, V domains shown) VH: QVQLVESGGGVVQPGRSLRLSCAASGFTFSSYGMHWVRQSPGKGLEWVAVISDDGSNQYYADSVKGRFTISRDNSKNTLYLQMNSLRVEDTAVYYCAKRGGYCSTTSCLLRWVYFDFWGQGTLATVSS VL: DIQMTQSPSSLSASVGDRVTITCRASQSISSYLHWYQQKPGKAPNLLIYAASSLQSGVPSRFSGSGSGTDFTLTISSLQPEDFATYYCQQSYNTPTFGPGTKVDIKR |  | 2.21 |  |
| P5A-2G9 (antibody, human IgG1, lambda, V domains shown) VH: QVQLVESGGGVVQPGRSLRLSCAASGFTFSSYGMHWVRQAPGKGLEWVAVIWYDGSNKYYADSVKGRFTISRDNSKNTLYLQMNSLRAEDTAVYYCARWFHTGGYFDYWGQGTLVTVSS VL: QPVLTQPPSSSASPGESARLTCTLPSDINVSSYNIYWYQQKPGSPPRYLLYYYSDSDKGQGSGVPSRFSGSKDASANTGILLISGLQSEDEADYYCMIWPSNALYVFGTGTKVTVLG [P5A-2G9, listing 2 of 2 here] | 0.147 | 0.498 | 0.0158 |
| P5A-1D10 (antibody, human IgG1, lambda, V domains shown) VH: QVQLVESGGGLVKPGGSLRLSCAASQFTFSDYSMTWIRQAPGKGLEWVSYISQSGSTIYYADSVKGRFTISRDNAKNSLYLQMNSLRAEDTAVYYCARGVSPSYVWGSYRSLYHFDYWGQGTLVTVSS VL: QSALTQPASVSGSPGQSITISCTGTSSDVGGYNYVSWYQQHPGKAPKLMIYDVSNRPSGVSNRFSASKSGNTASLTISGLQAEDEADYYCSSFTSSTTVVVFGGGTKLTVLG | 28.9 | 43.8 | 5.72 |
| P5A-3A6 (antibody, human IgG1, lambda, V domains shown) VH: EVQLVESGGGLVQPGRSLRLSCAASGFTFDDYAMHWVRQAPGKGLEWVSGISWNSGTIGYADSVKGRFIISRDNAKNSLYLQMNSLRAEDTALYYCAGGGTMVRGVIAGGGTHPVDDYYGMDVWGQGTTVTVSS VL: QSALTQPASVSGSPGQSITISCTGTSSDVGGYNYVSWYQQHPGKAPKLMIYDVSNRPSGVSNRFSGSKSGNTASLTISGLQAEDEADYYCSSYTSSSTVVFGGGTKLTVLG | 1.27 | 2.77 | 0.234 |
| P5A-1B6 (antibody, human IgG1, kappa, V domains shown) VH: QVQLVESGGGVVQPGRSLRLSCAASGFTFSSYAMHWVRQAPGKGLEWVAVISYDGSNKYYADSVKGRFTISRDNSKNTLYLQMNSLRAEDTAVYYCARDGQAITMVQGVIGPPFDYWGQGTLVTVSS VL: not shown |  | 4.2 |  |
